Reference: US20220072094A1

Biological target: PLCγ1 (mouse, endogenous, hippocampus) (mouse) (UniProt Q62077)
Assay: cell-based or functional assay

TrkB Y816F (mouse, trkB PLC/PLC knock-in) (from UniProt P15209 32-821) (receptor)
decrease in pY783 PLCγ1 immunoreactivity in hippocampal synaptic membranes, trkB^PLC/PLC against trkB^WT/WT after normal saline (Western blot): 38% | pY783 PLCγ1 immunoreactivity in hippocampal synaptic membranes after status epilepticus, trkB^WT/WT over trkB^PLC/PLC (Western blot): 1.84 fold
